Experimental data: US20220033520A1

Experiments:
[1] = target: human FcRn complex (FCGRT and beta-2 microglobulin), recombinant, purified (human) (UniProt P55899); test: SPR, protein L capture, pH 6, kinetic
[2] = target: human FcRn complex (FCGRT and beta-2 microglobulin), recombinant, purified (human) (UniProt P55899); test: SPR, protein L capture, pH 7.4, steady state
[3] = target: human FcRn (FCGRT and beta-2 microglobulin) expressed on MDCK II cells (human) (UniProt P55899); test: cell-based or functional assay
[4] = target: human FcRn complex (FCGRT and beta-2 microglobulin), recombinant, purified (human) (UniProt P55899); test: SPR, anti-human Fab capture, pH 7.4, steady state
[5] = target: human FcRn complex (FCGRT and beta-2 microglobulin), recombinant, purified (human) (UniProt P55899); test: SPR, anti-human Fab capture, pH 6, steady state
[6] = target: cyno FcRn (cynomolgus monkey) (UniProt Q8SPV9); test: affinity for cyno FcRn at 25 C, pH 6.0
[7] = target: cyno FcRn (cynomolgus monkey) (UniProt Q8SPV9); test: affinity for cyno FcRn at 25 C, pH 7.4

Chain of cyno FcRn (cynomolgus monkey) (Q8SPV9 24-297 limits assumed, chain 1 of 2): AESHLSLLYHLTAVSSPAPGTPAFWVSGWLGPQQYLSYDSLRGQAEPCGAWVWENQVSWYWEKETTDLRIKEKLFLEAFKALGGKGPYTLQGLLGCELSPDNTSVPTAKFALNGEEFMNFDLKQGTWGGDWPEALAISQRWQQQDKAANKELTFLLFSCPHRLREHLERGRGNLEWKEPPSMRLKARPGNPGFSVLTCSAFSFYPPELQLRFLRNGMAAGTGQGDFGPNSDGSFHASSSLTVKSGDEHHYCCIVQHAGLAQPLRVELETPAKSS
Chain of cyno FcRn (cynomolgus monkey) (Q8SPW0 21-119 limits assumed, chain 2 of 2, further chain): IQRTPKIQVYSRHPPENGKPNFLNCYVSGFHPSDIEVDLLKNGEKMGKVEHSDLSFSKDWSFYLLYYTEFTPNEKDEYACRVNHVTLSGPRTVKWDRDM

Row | Binder | Kd [4] | Kd [5] | other results
1 | anti-BACE1 hIgG4 antibody, Fc modification T1-IgG4 (M252Y/T307Q/N434Y) (antibody, part only; not given: anti-BACE1 variable domains, not shown: another chain or arm of the molecule) Fc: PAPEFLGGPSVFLFPPKPKDTLYISRTPEVTCVVVDVSQEDPEVQFNWYVDGVEVHNAKTKPREEQFNSTYRVVSVLQVLHQDWLNGKEYKCKVSNKGLPSSIEKTISKAKGQPREPQVYTLPPSQEEMTKNQVSLTCLVKGFYPSDIAVEWESNGQPENNYKTTPPVLDSDGSFFLYSRLTVDKSRWQEGNVFSCSVMHEALHYHYTQKSLSLSLGK | – | – | Kd [1]: 10.5 nM; koff [1]: 0.00897 s⁻¹; kon [1]: 856000 M⁻¹ s⁻¹; Kd [2]: 328 nM; Transcytosis Normalized to WT (normalized to WT) [3]: 80
2 | anti-Abeta hIgG4 antibody, Fc modification Q95 (M252Y/T307Q/Q311A/N434Y) (antibody, part only; not given: anti-Abeta variable domains, not shown: another chain or arm of the molecule) Fc: PAPEFLGGPSVFLFPPKPKDTLYISRTPEVTCVVVDVSQEDPEVQFNWYVDGVEVHNAKTKPREEQFNSTYRVVSVLQVLHADWLNGKEYKCKVSNKGLPSSIEKTISKAKGQPREPQVYTLPPSQEEMTKNQVSLTCLVKGFYPSDIAVEWESNGQPENNYKTTPPVLDSDGSFFLYSRLTVDKSRWQEGNVFSCSVMHEALHYHYTQKSLSLSLGK | 284 nM | 6.5 nM | Kd [6]: 8.2 nM; Kd [7]: 215 nM
3 | anti-Abeta hIgG4 antibody, Fc modification Q6 (M252Y/M428L/N434Y/Y436I) (antibody, part only; not given: anti-Abeta variable domains, not shown: another chain or arm of the molecule) Fc: PAPEFLGGPSVFLFPPKPKDTLYISRTPEVTCVVVDVSQEDPEVQFNWYVDGVEVHNAKTKPREEQFNSTYRVVSVLTVLHQDWLNGKEYKCKVSNKGLPSSIEKTISKAKGQPREPQVYTLPPSQEEMTKNQVSLTCLVKGFYPSDIAVEWESNGQPENNYKTTPPVLDSDGSFFLYSRLTVDKSRWQEGNVFSCSVLHEALHYHITQKSLSLSLGK | 285 nM | 8 nM | –
4 | anti-Abeta hIgG4 antibody, Fc modification Q4 (M252Y/Q311I/M428L/N434Y) (antibody, part only; not given: Anti-Abeta variable domains, not shown: another chain or arm of the molecule) Fc: PAPEFLGGPSVFLFPPKPKDTLYISRTPEVTCVVVDVSQEDPEVQFNWYVDGVEVHNAKTKPREEQFNSTYRVVSVLTVLHIDWLNGKEYKCKVSNKGLPSSIEKTISKAKGQPREPQVYTLPPSQEEMTKNQVSLTCLVKGFYPSDIAVEWESNGQPENNYKTTPPVLDSDGSFFLYSRLTVDKSRWQEGNVFSCSVLHEALHYHYTQKSLSLSLGK | 486 nM | 9.2 nM | –
5 | anti-Abeta hIgG4 antibody, Fc modification D1 (M252Y/N434Y) (antibody, part only; not given: Anti-Abeta variable domains, not shown: another chain or arm of the molecule) Fc: PAPEFLGGPSVFLFPPKPKDTLYISRTPEVTCVVVDVSQEDPEVQFNWYVDGVEVHNAKTKPREEQFNSTYRVVSVLTVLHQDWLNGKEYKCKVSNKGLPSSIEKTISKAKGQPREPQVYTLPPSQEEMTKNQVSLTCLVKGFYPSDIAVEWESNGQPENNYKTTPPVLDSDGSFFLYSRLTVDKSRWQEGNVFSCSVMHEALHYHYTQKSLSLSLGK | 1020 nM | 13.1 nM | Kd [6]: 11.5 nM; Kd [7]: 571 nM
6 | anti-Abeta hIgG4 antibody, Fc modification T94 (M252Y/N286E/N434Y) (antibody, part only; not given: anti-Abeta variable domains, not shown: another chain or arm of the molecule) Fc: PAPEFLGGPSVFLFPPKPKDTLYISRTPEVTCVVVDVSQEDPEVQFNWYVDGVEVHEAKTKPREEQFNSTYRVVSVLTVLHQDWLNGKEYKCKVSNKGLPSSIEKTISKAKGQPREPQVYTLPPSQEEMTKNQVSLTCLVKGFYPSDIAVEWESNGQPENNYKTTPPVLDSDGSFFLYSRLTVDKSRWQEGNVFSCSVMHEALHYHYTQKSLSLSLGK | 406 nM | 8.8 nM | Kd [6]: 10.1 nM; Kd [7]: 369 nM
7 | anti-Abeta hIgG4 antibody, Fc modification Q7 (M252Y/Q311A/N434Y/Y436I) (antibody, part only; not given: anti-Abeta variable domains, not shown: another chain or arm of the molecule) Fc: PAPEFLGGPSVFLFPPKPKDTLYISRTPEVTCVVVDVSQEDPEVQFNWYVDGVEVHNAKTKPREEQFNSTYRVVSVLTVLHADWLNGKEYKCKVSNKGLPSSIEKTISKAKGQPREPQVYTLPPSQEEMTKNQVSLTCLVKGFYPSDIAVEWESNGQPENNYKTTPPVLDSDGSFFLYSRLTVDKSRWQEGNVFSCSVMHEALHYHITQKSLSLSLGK | 273 nM | 7.4 nM | –
8 | anti-Abeta hIgG4 antibody, Fc modification T3 (M252Y/Q311I/N434Y) (antibody, part only; not given: anti-Abeta variable domains, not shown: another chain or arm of the molecule) Fc: PAPEFLGGPSVFLFPPKPKDTLYISRTPEVTCVVVDVSQEDPEVQFNWYVDGVEVHNAKTKPREEQFNSTYRVVSVLTVLHIDWLNGKEYKCKVSNKGLPSSIEKTISKAKGQPREPQVYTLPPSQEEMTKNQVSLTCLVKGFYPSDIAVEWESNGQPENNYKTTPPVLDSDGSFFLYSRLTVDKSRWQEGNVFSCSVMHEALHYHYTQKSLSLSLGK | 334 nM | 9.2 nM | –
9 | anti-BACE1 hIgG4 antibody, Fc modification T94 (M252Y/N286E/N434Y) (antibody, part only; not given: Anti-BACE1 variable domains, not shown: another chain or arm of the molecule) Fc: PAPEFLGGPSVFLFPPKPKDTLYISRTPEVTCVVVDVSQEDPEVQFNWYVDGVEVHEAKTKPREEQFNSTYRVVSVLTVLHQDWLNGKEYKCKVSNKGLPSSIEKTISKAKGQPREPQVYTLPPSQEEMTKNQVSLTCLVKGFYPSDIAVEWESNGQPENNYKTTPPVLDSDGSFFLYSRLTVDKSRWQEGNVFSCSVMHEALHYHYTQKSLSLSLGK | 305 nM | 7.04 nM | –

Continued by falling Kd [4], values first:

Row | Kd [4] | Kd [5] | Binder | other results
10 | 263 nM | 7.4 nM | anti-BACE1 hIgG4 antibody, Fc modification T3 (M252Y/Q311I/N434Y) (antibody, part only; not given: Anti-BACE1 variable domains, not shown: another chain or arm of the molecule) Fc: PAPEFLGGPSVFLFPPKPKDTLYISRTPEVTCVVVDVSQEDPEVQFNWYVDGVEVHNAKTKPREEQFNSTYRVVSVLTVLHIDWLNGKEYKCKVSNKGLPSSIEKTISKAKGQPREPQVYTLPPSQEEMTKNQVSLTCLVKGFYPSDIAVEWESNGQPENNYKTTPPVLDSDGSFFLYSRLTVDKSRWQEGNVFSCSVMHEALHYHYTQKSLSLSLGK | –
11 | 230 nM | – | anti-BACE1 hIgG4 antibody, Fc modification Q7 (M252Y/Q311A/N434Y/Y436I) (antibody, part only; not given: anti-BACE1 variable domains, not shown: another chain or arm of the molecule) Fc: PAPEFLGGPSVFLFPPKPKDTLYISRTPEVTCVVVDVSQEDPEVQFNWYVDGVEVHNAKTKPREEQFNSTYRVVSVLTVLHADWLNGKEYKCKVSNKGLPSSIEKTISKAKGQPREPQVYTLPPSQEEMTKNQVSLTCLVKGFYPSDIAVEWESNGQPENNYKTTPPVLDSDGSFFLYSRLTVDKSRWQEGNVFSCSVMHEALHYHITQKSLSLSLGK | –
12 | 215 nM | 6.3 nM | anti-BACE1 hIgG4 antibody, Fc modification Q6 (M252Y/M428L/N434Y/Y436I) (antibody, part only; not given: anti-BACE1 variable domains, not shown: another chain or arm of the molecule) Fc: PAPEFLGGPSVFLFPPKPKDTLYISRTPEVTCVVVDVSQEDPEVQFNWYVDGVEVHNAKTKPREEQFNSTYRVVSVLTVLHQDWLNGKEYKCKVSNKGLPSSIEKTISKAKGQPREPQVYTLPPSQEEMTKNQVSLTCLVKGFYPSDIAVEWESNGQPENNYKTTPPVLDSDGSFFLYSRLTVDKSRWQEGNVFSCSVLHEALHYHITQKSLSLSLGK | –
13 | 202 nM | 5.9 nM | anti-BACE1 hIgG4 antibody, Fc modification Q95 (M252Y/T307Q/Q311A/N434Y) (antibody, part only; not given: Anti-BACE1 variable domains, not shown: another chain or arm of the molecule) Fc: PAPEFLGGPSVFLFPPKPKDTLYISRTPEVTCVVVDVSQEDPEVQFNWYVDGVEVHNAKTKPREEQFNSTYRVVSVLQVLHADWLNGKEYKCKVSNKGLPSSIEKTISKAKGQPREPQVYTLPPSQEEMTKNQVSLTCLVKGFYPSDIAVEWESNGQPENNYKTTPPVLDSDGSFFLYSRLTVDKSRWQEGNVFSCSVMHEALHYHYTQKSLSLSLGK | –
